These results are taken from patent publication US20240174741A1 (IMMUNOME, published 2024).

Assay [1] addresses T1, human interleukin-38 (IL-38) (human, UniProt Q8WWZ1 1-152).
T1 construct: The Adipogen protein is called full length; also called IL1F10/IL38; IL1F10
T1 sequence (looked up): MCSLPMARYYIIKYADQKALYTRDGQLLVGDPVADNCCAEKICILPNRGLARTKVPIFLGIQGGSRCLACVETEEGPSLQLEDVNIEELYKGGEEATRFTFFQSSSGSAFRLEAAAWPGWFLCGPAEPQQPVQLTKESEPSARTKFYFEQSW
The assay can be described thus: CDI HuProt native protein microarray, IL-1 family members. The protocol:
(§1) To confirm specificity to IL-38, several lead candidate antibodies (CD1-M3, CD1-M8, NZB-M8) were analyzed in a High-Spec Cross-reactivity Assay using native HuProt arrays (CDI Laboratories). […] of antibody was incubated overnight in a cold room, washed, and probed with anti-human secondary antibodies. Fluorescence intensity (F635) as an indicator of binding was measured for each spot. CDI software quantified the specificity of the antibody to each spot based on a Z-score. Z-score is defined as [F635−(Average F635 on array)]/(Standard deviation of F635 on array). S-score is defined as the difference between the Z-score of a given protein and the Z-score of the next highest protein.

Another assay has as its target T2, IL-1α (human, UniProt P01583 1-271, limits assumed).
T2 sequence (looked up): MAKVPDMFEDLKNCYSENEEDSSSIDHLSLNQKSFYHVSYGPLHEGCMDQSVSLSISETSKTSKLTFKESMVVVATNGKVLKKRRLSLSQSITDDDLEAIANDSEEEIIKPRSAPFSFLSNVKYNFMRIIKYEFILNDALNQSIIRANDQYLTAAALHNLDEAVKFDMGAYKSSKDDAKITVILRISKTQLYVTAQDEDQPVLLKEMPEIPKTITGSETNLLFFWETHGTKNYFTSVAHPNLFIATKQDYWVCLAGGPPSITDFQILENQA
The assay is described as above. As for the experimental part:
as §1

The target of another assay is IL-1β (human, UniProt P01584 1-269, limits assumed). The description is as above. The protocol:
as §1

The target in another assay is IL-1Ra (human, UniProt P18510 26-177, limits assumed). The assay is described as above. The protocol:
as §1

A further assay addresses T3, IL-18 (human, UniProt Q14116 1-193, limits assumed).
T3 sequence (looked up): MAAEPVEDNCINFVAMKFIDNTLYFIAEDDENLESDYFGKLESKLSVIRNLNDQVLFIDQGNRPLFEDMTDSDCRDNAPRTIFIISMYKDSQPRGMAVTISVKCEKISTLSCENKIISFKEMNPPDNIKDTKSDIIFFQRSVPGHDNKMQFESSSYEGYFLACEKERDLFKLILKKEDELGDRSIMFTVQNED
Described as above. The protocol: as §1

The next assay addresses T4, IL-36Ra (human, UniProt Q9UBH0 1-155, limits assumed).
T4 sequence (looked up): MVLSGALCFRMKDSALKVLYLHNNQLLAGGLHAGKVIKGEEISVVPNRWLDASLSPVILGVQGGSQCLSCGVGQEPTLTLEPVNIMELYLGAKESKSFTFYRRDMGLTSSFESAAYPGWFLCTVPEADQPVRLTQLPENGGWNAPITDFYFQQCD
The assay is described as above. As for the experimental part:
as §1

Another assay has as its target T5, IL-36a (human, UniProt Q9UHA7 1-158, limits assumed).
T5 sequence (looked up): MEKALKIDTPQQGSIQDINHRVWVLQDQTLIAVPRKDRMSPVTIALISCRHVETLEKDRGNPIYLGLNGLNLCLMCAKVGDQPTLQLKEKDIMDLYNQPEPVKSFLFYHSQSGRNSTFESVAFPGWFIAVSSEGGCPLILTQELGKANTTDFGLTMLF
Described as above. As for the experimental part:
as §1

The next assay deals with T6, IL-37 (human, UniProt Q9NZH6 1-218, limits assumed).
T6 sequence (looked up): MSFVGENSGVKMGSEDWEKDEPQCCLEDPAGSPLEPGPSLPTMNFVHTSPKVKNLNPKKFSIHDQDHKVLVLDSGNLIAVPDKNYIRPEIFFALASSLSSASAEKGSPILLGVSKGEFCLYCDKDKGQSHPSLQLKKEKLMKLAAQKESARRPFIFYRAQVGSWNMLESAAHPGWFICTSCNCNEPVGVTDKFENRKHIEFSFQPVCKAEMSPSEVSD
The assay is described as above. The protocol:
as §1

A further assay deals with T7, IL-36b (human, UniProt Q9NZH7 1-164, limits assumed).
T7 sequence (looked up): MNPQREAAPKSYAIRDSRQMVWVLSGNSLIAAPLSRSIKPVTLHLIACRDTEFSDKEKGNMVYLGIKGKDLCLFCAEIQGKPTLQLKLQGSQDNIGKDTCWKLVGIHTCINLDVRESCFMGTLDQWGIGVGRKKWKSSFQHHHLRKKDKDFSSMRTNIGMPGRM
The assay is described as above. The protocol: as §1

The next assay addresses T8, IL-36g (human, UniProt Q9NZH8 1-169, limits assumed).
T8 sequence (looked up): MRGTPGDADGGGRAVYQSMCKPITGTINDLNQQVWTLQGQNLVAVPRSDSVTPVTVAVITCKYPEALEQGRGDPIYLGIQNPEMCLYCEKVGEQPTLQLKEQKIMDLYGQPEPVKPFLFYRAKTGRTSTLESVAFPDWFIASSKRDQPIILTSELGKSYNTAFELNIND
The description is as above. The protocol:
as §1

For assay [2], the target named is T1, human interleukin-38 (IL-38). The assay can be described thus: BLI (Octet QKe), antibody on anti-mouse Fc biosensors, soluble IL-38, 1:1 model. As for the experimental part:
Antibody was loaded to AMC probes, blocked in the kinetics buffer for 1 min (baseline) and dipped into an appropriate IL-38 solution. IL-38 association to antibodies of interest was measured for 180 seconds at 28° C. Biosensors were subsequently dipped into kinetics buffer-containing wells and the protein dissociation was measured for 600 s. KD, Kon and Kdis values were identified using the 1:1 built-in model of the ForteBio's Data Analysis 9 software.
(Biolayer interferometry detects binding as a change in optical thickness at a sensor tip.)

Chain of IL-1Ra (P18510 26-177 limits assumed): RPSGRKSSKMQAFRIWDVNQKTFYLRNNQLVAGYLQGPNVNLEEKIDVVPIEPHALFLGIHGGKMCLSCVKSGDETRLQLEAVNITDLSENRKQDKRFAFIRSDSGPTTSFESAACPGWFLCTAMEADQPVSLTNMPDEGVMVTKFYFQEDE

B1: CD1-M3 (antibody, V domains shown)
VH: EVQLQQSGPELVKPGASVKIPCKASGYTFTDYNMDWVKQSHGKSLEWIGDINPNNGGTIYNQKFKGKATLTVDKSSSTAYMELRSLTSEDTAVYYCSRPYYGYFAYWGQGTLVTVSA
VL: DVVMTQSPLSLPVSLGDQASISCRSSQSLVHSHENTFLHWYLQKPGQSPKLLIYRVSNRFSGVPDRFSGSGSGTDFTLKISRVEAEDLGVYFCSQSTHVPLTFGAGTKLELK
notes: Mouse monoclonal from a hybridoma of a CD-1 mouse immunized with full length recombinant IL-38
In general, Kd refers to the constant that tells how readily two partners part at equilibrium. A low value points to tighter binding. As to B1, the Z-score is 140 in [1]; -0.013 with IL-1α; -0.016 with IL-1β; -0.013 with IL-1Ra; -0.016 with IL-18; -0.017 with IL-36Ra. Further, the Z-score was -0.008 in the assay with IL-36a, -0.013 with IL-37, -0.016 with IL-36b and -0.017 with IL-36g. Binding in assay [2] was put at a Kd of 0.721 nM.
